The target of data set [1] is T1, UGT1A4 (Homo sapiens, UniProt P22310).
T1 sequence (P22310 29-534): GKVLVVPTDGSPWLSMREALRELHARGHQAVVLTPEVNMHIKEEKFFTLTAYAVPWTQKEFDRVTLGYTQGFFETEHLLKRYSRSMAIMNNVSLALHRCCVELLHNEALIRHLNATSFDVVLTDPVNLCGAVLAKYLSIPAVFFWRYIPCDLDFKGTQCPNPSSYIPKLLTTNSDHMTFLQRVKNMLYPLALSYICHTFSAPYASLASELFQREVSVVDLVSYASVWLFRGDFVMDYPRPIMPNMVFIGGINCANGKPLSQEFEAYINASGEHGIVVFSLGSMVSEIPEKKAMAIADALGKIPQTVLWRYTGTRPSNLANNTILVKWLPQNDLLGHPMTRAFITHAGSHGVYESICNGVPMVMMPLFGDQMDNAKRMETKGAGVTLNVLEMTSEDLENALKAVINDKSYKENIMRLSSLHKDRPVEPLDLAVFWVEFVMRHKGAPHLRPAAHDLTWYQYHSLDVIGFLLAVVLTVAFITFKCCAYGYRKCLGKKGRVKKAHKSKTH
The data set is described as follows: Inhibition of glucuronide formation in UGT1A4-over-expressing cell homogenates. The class given is biochemical. Conditions: 10 μM hecogenin.

In data set [2] the test system is Human liver microsomes (HLM). The class given is biochemical. The settings on record: 10 μM hecogenin; 160 μM CLZ; HLM.
Substrate in data set [3]: CN1CCN(C2=Nc3cc(Cl)ccc3Nc3ccccc32)CC1
Description: cells, lysate or membranes named. The settings on record: other: substrate CLZ.

Substrate in data set [4]: Clc1ccc2c(c1)N=C(N1CCNCC1)c1ccccc1N2
Description: cells, lysate or membranes named. The settings on record: other: substrate dmCLZ.

“And” between values parts separate entries of the source, which are not always exact repeats. Identical values can stand only once. Marks after values point to notes of the source that are not given here.

In the case of hecogenin, in data set [1] (160 μM CLZ), the “inhibition of CLZ-5-N-glucuronide formation” value came to 77% and the “inhibition of CLZ-N^+-glucuronide formation” value came to 82%. Besides, the “inhibition of dmCLZ-5-N-glucuronide formation” value in data set [1] (320 μM dmCLZ) was 81%. In data set [2], the “inhibition of CLZ-5-N-glucuronide formation” value turned out to be 89 ± 3% and the “inhibition of CLZ-N^+-glucuronide formation” value is given as 46 ± 5%.

B1: UGT1A4^24Thr/48Leu (Homo sapiens) (protein)
chain: MARGLQVPLPRLATGLLLLLSVQPWAESGKVLVVPTDGSPWLSMREALRELHARGHQAVVLTPEVNMHIKEEKFFTLTAYAVPWTQKEFDRVTLGYTQGFFETEHLLKRYSRSMAIMNNVSLALHRCCVELLHNEALIRHLNATSFDVVLTDPVNLCGAVLAKYLSIPAVFFWRYIPCDLDFKGTQCPNPSSYIPKLLTTNSDHMTFLQRVKNMLYPLALSYICHTFSAPYASLASELFQREVSVVDLVSYASVWLFRGDFVMDYPRPIMPNMVFIGGINCANGKPLSQEFEAYINASGEHGIVVFSLGSMVSEIPEKKAMAIADALGKIPQTVLWRYTGTRPSNLANNTILVKWLPQNDLLGHPMTRAFITHAGSHGVYESICNGVPMVMMPLFGDQMDNAKRMETKGAGVTLNVLEMTSEDLENALKAVINDKSYKENIMRLSSLHKDRPVEPLDLAVFWVEFVMRHKGAPHLRPAAHDLTWYQYHSLDVIGFLLAVVLTVAFITFKCCAYGYRKCLGKKGRVKKAHKSKTH
On to B1, for which the Michaelis constant (Km) in data set [3] is 167 ± 19^d μM and 459 ± 23^e μM. For the same molecule, in data set [4], the Km is given as 440 ± 45^b μM, the Vmax amounted to 0.0064 ± 0.0009 µmol/min/mg and the Vmax/Km amounted to 15 ± 1.5 µL/min/mg.

B2: UGT1A4^24Pro/48Leu (Homo sapiens) (protein)
chain: GKVLVVPTDGSPWLSMREALRELHARGHQAVVLTPEVNMHIKEEKFFTLTAYAVPWTQKEFDRVTLGYTQGFFETEHLLKRYSRSMAIMNNVSLALHRCCVELLHNEALIRHLNATSFDVVLTDPVNLCGAVLAKYLSIPAVFFWRYIPCDLDFKGTQCPNPSSYIPKLLTTNSDHMTFLQRVKNMLYPLALSYICHTFSAPYASLASELFQREVSVVDLVSYASVWLFRGDFVMDYPRPIMPNMVFIGGINCANGKPLSQEFEAYINASGEHGIVVFSLGSMVSEIPEKKAMAIADALGKIPQTVLWRYTGTRPSNLANNTILVKWLPQNDLLGHPMTRAFITHAGSHGVYESICNGVPMVMMPLFGDQMDNAKRMETKGAGVTLNVLEMTSEDLENALKAVINDKSYKENIMRLSSLHKDRPVEPLDLAVFWVEFVMRHKGAPHLRPAAHDLTWYQYHSLDVIGFLLAVVLTVAFITFKCCAYGYRKCLGKKGRVKKAHKSKTH
Take B2: in data set [4], the Michaelis-Menten constant (Km) was 379 ± 46 µM, the Vmax was 0.01 µmol/min/mg and the Vmax/Km turned out to be 28 µL/min/mg.

B3: UGT1A4^24Pro/48Val (Homo sapiens; L48V) (protein)
chain: GKVLVVPTDGSPWLSMREAVRELHARGHQAVVLTPEVNMHIKEEKFFTLTAYAVPWTQKEFDRVTLGYTQGFFETEHLLKRYSRSMAIMNNVSLALHRCCVELLHNEALIRHLNATSFDVVLTDPVNLCGAVLAKYLSIPAVFFWRYIPCDLDFKGTQCPNPSSYIPKLLTTNSDHMTFLQRVKNMLYPLALSYICHTFSAPYASLASELFQREVSVVDLVSYASVWLFRGDFVMDYPRPIMPNMVFIGGINCANGKPLSQEFEAYINASGEHGIVVFSLGSMVSEIPEKKAMAIADALGKIPQTVLWRYTGTRPSNLANNTILVKWLPQNDLLGHPMTRAFITHAGSHGVYESICNGVPMVMMPLFGDQMDNAKRMETKGAGVTLNVLEMTSEDLENALKAVINDKSYKENIMRLSSLHKDRPVEPLDLAVFWVEFVMRHKGAPHLRPAAHDLTWYQYHSLDVIGFLLAVVLTVAFITFKCCAYGYRKCLGKKGRVKKAHKSKTH
In the case of B3, in data set [4], the Km is recorded as 173 ± 22^e μM, the Vmax came to 0.017 ± 0.0013 µmol/min/mg and the Vmax/Km is 96 ± 8 µL/min/mg.

B4: UGT1A1 (Homo sapiens) (protein)
chain: HAGKILLIPVDGSHWLSMLGAIQQLQQRGHEIVVLAPDASLYIRDGAFYTLKTYPVPFQREDVKESFVSLGHNVFENDSFLQRVIKTYKKIKKDSAMLLSGCSHLLHNKELMASLAESSFDVMLTDPFLPCSPIVAQYLSLPTVFFLHALPCSLEFEATQCPNPFSYVPRPLSSHSDHMTFLQRVKNMLIAFSQNFLCDVVYSPYATLASEFLQREVTVQDLLSSASVWLFRSDFVKDYPRPIMPNMVFVGGINCLHQNPLSQEFEAYINASGEHGIVVFSLGSMVSEIPEKKAMAIADALGKIPQTVLWRYTGTRPSNLANNTILVKWLPQNDLLGHPMTRAFITHAGSHGVYESICNGVPMVMMPLFGDQMDNAKRMETKGAGVTLNVLEMTSEDLENALKAVINDKSYKENIMRLSSLHKDRPVEPLDLAVFWVEFVMRHKGAPHLRPAAHDLTWYQYHSLDVIGFLLAVVLTVAFITFKCCAYGYRKCLGKKGRVKKAHKSKTH
In the case of B4, in data set [3], the Km is listed as 53 ± 2^a,b μM, the Vmax was determined as 0.00086 ± 2e-05 µmol/min/mg and the Vmax/Km stood at 17 ± 0.6 µL/min/mg.

The values above are taken from article PMC6278935 (Pharmacogenetics and genomics, 2012).
